What follows are molecules tested on chimeric Caspase-9 polypeptide (assay: Caspase-9 mutant classes and basal activity (Table 5)). Conditions: Caspase-9 mutant class.
Format: cell-based

chimeric Caspase-9 polypeptide, sequence (P62942 2-108 F37V limits assumed): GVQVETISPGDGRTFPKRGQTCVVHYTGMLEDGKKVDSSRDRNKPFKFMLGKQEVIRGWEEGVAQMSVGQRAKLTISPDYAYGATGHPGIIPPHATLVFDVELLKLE

Molecule | Catalytic activity (class 'Catalytically dead')
D330A-Y153A (protein) GFGDVGALESLRGNADLAAILSMEPCGHCLIINNVNFCRESGLRTRTGSNIDCEKLRRRFSSLHFMVEVKGDLTAKKMVLALLELARQDHGALDCCVVVILSHGCQASHLQFPGAVYGTDGCPVSVEKIVNIFNGTSCPSLGGKPKLFFIQACGGEQKDHGFEVASTSPEDESPGSNPEPDATPFQEGLRTFDQLAAISSLPTPSDIFVSYSTFPGFVSWRDPKSGSWYVETLDDIFEQWAHSEDLQSLLLRVANAVSVKGIYKQMPGCFNFLRKKLFFKTSASRA | dead
D330A-Y153F (protein) GFGDVGALESLRGNADLAFILSMEPCGHCLIINNVNFCRESGLRTRTGSNIDCEKLRRRFSSLHFMVEVKGDLTAKKMVLALLELARQDHGALDCCVVVILSHGCQASHLQFPGAVYGTDGCPVSVEKIVNIFNGTSCPSLGGKPKLFFIQACGGEQKDHGFEVASTSPEDESPGSNPEPDATPFQEGLRTFDQLAAISSLPTPSDIFVSYSTFPGFVSWRDPKSGSWYVETLDDIFEQWAHSEDLQSLLLRVANAVSVKGIYKQMPGCFNFLRKKLFFKTSASRA | dead
F406L (protein) GFGDVGALESLRGNADLAYILSMEPCGHCLIINNVNFCRESGLRTRTGSNIDCEKLRRRFSSLHFMVEVKGDLTAKKMVLALLELARQDHGALDCCVVVILSHGCQASHLQFPGAVYGTDGCPVSVEKIVNIFNGTSCPSLGGKPKLFFIQACGGEQKDHGFEVASTSPEDESPGSNPEPDATPFQEGLRTFDQLDAISSLPTPSDIFVSYSTFPGFVSWRDPKSGSWYVETLDDIFEQWAHSEDLQSLLLRVANAVSVKGIYKQMPGCFNLLRKKLFFKTSASRA | dead
D315A-D330A (protein) GFGDVGALESLRGNADLAYILSMEPCGHCLIINNVNFCRESGLRTRTGSNIDCEKLRRRFSSLHFMVEVKGDLTAKKMVLALLELARQDHGALDCCVVVILSHGCQASHLQFPGAVYGTDGCPVSVEKIVNIFNGTSCPSLGGKPKLFFIQACGGEQKDHGFEVASTSPEDESPGSNPEPAATPFQEGLRTFDQLAAISSLPTPSDIFVSYSTFPGFVSWRDPKSGSWYVETLDDIFEQWAHSEDLQSLLLRVANAVSVKGIYKQMPGCFNFLRKKLFFKTSASRA | dead
F404A (protein) GFGDVGALESLRGNADLAYILSMEPCGHCLIINNVNFCRESGLRTRTGSNIDCEKLRRRFSSLHFMVEVKGDLTAKKMVLALLELARQDHGALDCCVVVILSHGCQASHLQFPGAVYGTDGCPVSVEKIVNIFNGTSCPSLGGKPKLFFIQACGGEQKDHGFEVASTSPEDESPGSNPEPDATPFQEGLRTFDQLDAISSLPTPSDIFVSYSTFPGFVSWRDPKSGSWYVETLDDIFEQWAHSEDLQSLLLRVANAVSVKGIYKQMPGCANFLRKKLFFKTSASRA | dead
F404S (protein) GFGDVGALESLRGNADLAYILSMEPCGHCLIINNVNFCRESGLRTRTGSNIDCEKLRRRFSSLHFMVEVKGDLTAKKMVLALLELARQDHGALDCCVVVILSHGCQASHLQFPGAVYGTDGCPVSVEKIVNIFNGTSCPSLGGKPKLFFIQACGGEQKDHGFEVASTSPEDESPGSNPEPDATPFQEGLRTFDQLDAISSLPTPSDIFVSYSTFPGFVSWRDPKSGSWYVETLDDIFEQWAHSEDLQSLLLRVANAVSVKGIYKQMPGCSNFLRKKLFFKTSASRA | dead
D330A-T317E (protein) GFGDVGALESLRGNADLAYILSMEPCGHCLIINNVNFCRESGLRTRTGSNIDCEKLRRRFSSLHFMVEVKGDLTAKKMVLALLELARQDHGALDCCVVVILSHGCQASHLQFPGAVYGTDGCPVSVEKIVNIFNGTSCPSLGGKPKLFFIQACGGEQKDHGFEVASTSPEDESPGSNPEPDAEPFQEGLRTFDQLAAISSLPTPSDIFVSYSTFPGFVSWRDPKSGSWYVETLDDIFEQWAHSEDLQSLLLRVANAVSVKGIYKQMPGCFNFLRKKLFFKTSASRA | dead
402GCFNF^406AAAAA (protein, UniProt P55211 1-416, looked up, variant G402A C403A F404A N405A F406A) MDEADRRLLRRCRLRLVEELQVDQLWDALLSRELFRPHMIEDIQRAGSGSRRDQARQLIIDLETRGSQALPLFISCLEDTGQDMLASFLRTNRQAAKLSKPTLENLTPVVLRPEIRKPEVLRPETPRPVDIGSGGFGDVGALESLRGNADLAYILSMEPCGHCLIINNVNFCRESGLRTRTGSNIDCEKLRRRFSSLHFMVEVKGDLTAKKMVLALLELAQQDHGALDCCVVVILSHGCQASHLQFPGAVYGTDGCPVSVEKIVNIFNGTSCPSLGGKPKLFFIQACGGEQKDHGFEVASTSPEDESPGSNPEPDATPFQEGLRTFDQLDAISSLPTPSDIFVSYSTFPGFVSWRDPKSGSWYVETLDDIFEQWAHSEDLQSLLLRVANAVSVKGIYKQMPAAAAALRKKLFFKTS | dead
402GCFNF^406CIVSM (Casp-3) (protein, UniProt P55211 1-416, looked up, variant G402C C403I F404V N405S F406M) MDEADRRLLRRCRLRLVEELQVDQLWDALLSRELFRPHMIEDIQRAGSGSRRDQARQLIIDLETRGSQALPLFISCLEDTGQDMLASFLRTNRQAAKLSKPTLENLTPVVLRPEIRKPEVLRPETPRPVDIGSGGFGDVGALESLRGNADLAYILSMEPCGHCLIINNVNFCRESGLRTRTGSNIDCEKLRRRFSSLHFMVEVKGDLTAKKMVLALLELAQQDHGALDCCVVVILSHGCQASHLQFPGAVYGTDGCPVSVEKIVNIFNGTSCPSLGGKPKLFFIQACGGEQKDHGFEVASTSPEDESPGSNPEPDATPFQEGLRTFDQLDAISSLPTPSDIFVSYSTFPGFVSWRDPKSGSWYVETLDDIFEQWAHSEDLQSLLLRVANAVSVKGIYKQMPCIVSMLRKKLFFKTS | dead
402GCFNF^406YCSTL (Casp-2) (protein, UniProt P55211 1-416, looked up, variant G402Y F404S N405T F406L) MDEADRRLLRRCRLRLVEELQVDQLWDALLSRELFRPHMIEDIQRAGSGSRRDQARQLIIDLETRGSQALPLFISCLEDTGQDMLASFLRTNRQAAKLSKPTLENLTPVVLRPEIRKPEVLRPETPRPVDIGSGGFGDVGALESLRGNADLAYILSMEPCGHCLIINNVNFCRESGLRTRTGSNIDCEKLRRRFSSLHFMVEVKGDLTAKKMVLALLELAQQDHGALDCCVVVILSHGCQASHLQFPGAVYGTDGCPVSVEKIVNIFNGTSCPSLGGKPKLFFIQACGGEQKDHGFEVASTSPEDESPGSNPEPDATPFQEGLRTFDQLDAISSLPTPSDIFVSYSTFPGFVSWRDPKSGSWYVETLDDIFEQWAHSEDLQSLLLRVANAVSVKGIYKQMPYCSTLLRKKLFFKTS | dead

Same assay, conditions: Caspase-9 mutant class; basal (ligand-independent) signaling compared with unmodified chimeric Caspase-9

Basal Activity | Molecule
Increased | D327G (protein) GFGDVGALESLRGNADLAYILSMEPCGHCLIINNVNFCRESGLRTRTGSNIDCEKLRRRFSSLHFMVEVKGDLTAKKMVLALLELARQDHGALDCCVVVILSHGCQASHLQFPGAVYGTDGCPVSVEKIVNIFNGTSCPSLGGKPKLFFIQACGGEQKDHGFEVASTSPEDESPGSNPEPDATPFQEGLRTFGQLDAISSLPTPSDIFVSYSTFPGFVSWRDPKSGSWYVETLDDIFEQWAHSEDLQSLLLRVANAVSVKGIYKQMPGCFNFLRKKLFFKTSASRA
Increased | L329G (protein) GFGDVGALESLRGNADLAYILSMEPCGHCLIINNVNFCRESGLRTRTGSNIDCEKLRRRFSSLHFMVEVKGDLTAKKMVLALLELARQDHGALDCCVVVILSHGCQASHLQFPGAVYGTDGCPVSVEKIVNIFNGTSCPSLGGKPKLFFIQACGGEQKDHGFEVASTSPEDESPGSNPEPDATPFQEGLRTFDQGDAISSLPTPSDIFVSYSTFPGFVSWRDPKSGSWYVETLDDIFEQWAHSEDLQSLLLRVANAVSVKGIYKQMPGCFNFLRKKLFFKTSASRA
Increased | Q328K (protein) GFGDVGALESLRGNADLAYILSMEPCGHCLIINNVNFCRESGLRTRTGSNIDCEKLRRRFSSLHFMVEVKGDLTAKKMVLALLELARQDHGALDCCVVVILSHGCQASHLQFPGAVYGTDGCPVSVEKIVNIFNGTSCPSLGGKPKLFFIQACGGEQKDHGFEVASTSPEDESPGSNPEPDATPFQEGLRTFDKLDAISSLPTPSDIFVSYSTFPGFVSWRDPKSGSWYVETLDDIFEQWAHSEDLQSLLLRVANAVSVKGIYKQMPGCFNFLRKKLFFKTSASRA
Increased | D327K (protein) GFGDVGALESLRGNADLAYILSMEPCGHCLIINNVNFCRESGLRTRTGSNIDCEKLRRRFSSLHFMVEVKGDLTAKKMVLALLELARQDHGALDCCVVVILSHGCQASHLQFPGAVYGTDGCPVSVEKIVNIFNGTSCPSLGGKPKLFFIQACGGEQKDHGFEVASTSPEDESPGSNPEPDATPFQEGLRTFKQLDAISSLPTPSDIFVSYSTFPGFVSWRDPKSGSWYVETLDDIFEQWAHSEDLQSLLLRVANAVSVKGIYKQMPGCFNFLRKKLFFKTSASRA
Increased | Q328R (protein) GFGDVGALESLRGNADLAYILSMEPCGHCLIINNVNFCRESGLRTRTGSNIDCEKLRRRFSSLHFMVEVKGDLTAKKMVLALLELARQDHGALDCCVVVILSHGCQASHLQFPGAVYGTDGCPVSVEKIVNIFNGTSCPSLGGKPKLFFIQACGGEQKDHGFEVASTSPEDESPGSNPEPDATPFQEGLRTFDRLDAISSLPTPSDIFVSYSTFPGFVSWRDPKSGSWYVETLDDIFEQWAHSEDLQSLLLRVANAVSVKGIYKQMPGCFNFLRKKLFFKTSASRA
Increased | D327R (protein) GFGDVGALESLRGNADLAYILSMEPCGHCLIINNVNFCRESGLRTRTGSNIDCEKLRRRFSSLHFMVEVKGDLTAKKMVLALLELARQDHGALDCCVVVILSHGCQASHLQFPGAVYGTDGCPVSVEKIVNIFNGTSCPSLGGKPKLFFIQACGGEQKDHGFEVASTSPEDESPGSNPEPDATPFQEGLRTFRQLDAISSLPTPSDIFVSYSTFPGFVSWRDPKSGSWYVETLDDIFEQWAHSEDLQSLLLRVANAVSVKGIYKQMPGCFNFLRKKLFFKTSASRA
